# In US20260227398A1, “CD62L (L-SELECTIN) APTAMER AND ITS APPLICATION FOR T CELL ISOLATION” (University of Washington, published 2026):
# T1: L-selectin (CD62L) on primary CD4+ T cells (Homo sapiens, UniProt P14151 P14151:39-372)
# T1 sequence: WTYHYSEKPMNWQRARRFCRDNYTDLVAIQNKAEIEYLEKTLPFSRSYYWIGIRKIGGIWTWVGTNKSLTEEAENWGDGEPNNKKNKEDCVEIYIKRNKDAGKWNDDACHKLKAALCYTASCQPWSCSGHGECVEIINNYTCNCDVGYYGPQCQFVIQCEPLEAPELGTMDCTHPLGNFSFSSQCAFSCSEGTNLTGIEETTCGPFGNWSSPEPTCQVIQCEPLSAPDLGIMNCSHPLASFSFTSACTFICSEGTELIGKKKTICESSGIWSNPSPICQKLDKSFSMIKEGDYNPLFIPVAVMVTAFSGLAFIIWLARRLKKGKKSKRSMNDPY
# T2: L-selectin (CD62L, SELL) (Homo sapiens, UniProt P14151 P14151:39-332)
# T2 sequence: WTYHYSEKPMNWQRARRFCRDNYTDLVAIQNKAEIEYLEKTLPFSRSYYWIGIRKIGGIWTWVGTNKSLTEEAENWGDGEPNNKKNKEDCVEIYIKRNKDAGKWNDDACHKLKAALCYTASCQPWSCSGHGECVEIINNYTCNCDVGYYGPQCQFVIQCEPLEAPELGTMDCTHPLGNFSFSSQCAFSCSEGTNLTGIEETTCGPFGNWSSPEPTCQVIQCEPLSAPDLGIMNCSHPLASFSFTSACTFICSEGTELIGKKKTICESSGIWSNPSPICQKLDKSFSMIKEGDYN
# T3: L-selectin (CD62L) on J.RT3-T3.5 cells (Homo sapiens, UniProt P14151 P14151:39-372)
# T3 sequence: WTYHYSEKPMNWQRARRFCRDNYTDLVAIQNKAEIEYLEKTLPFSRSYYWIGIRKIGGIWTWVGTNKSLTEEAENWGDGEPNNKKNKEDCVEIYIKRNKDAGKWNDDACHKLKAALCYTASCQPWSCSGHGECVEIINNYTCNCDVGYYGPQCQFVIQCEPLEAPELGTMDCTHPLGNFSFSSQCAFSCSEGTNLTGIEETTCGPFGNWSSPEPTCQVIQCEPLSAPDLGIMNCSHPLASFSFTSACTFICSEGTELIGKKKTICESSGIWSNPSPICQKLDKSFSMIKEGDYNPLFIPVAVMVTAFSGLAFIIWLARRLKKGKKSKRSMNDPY
# T4: E-selectin (CD62E, SELE) (Homo sapiens, UniProt P16581 P16581:22-556)
# T4 sequence: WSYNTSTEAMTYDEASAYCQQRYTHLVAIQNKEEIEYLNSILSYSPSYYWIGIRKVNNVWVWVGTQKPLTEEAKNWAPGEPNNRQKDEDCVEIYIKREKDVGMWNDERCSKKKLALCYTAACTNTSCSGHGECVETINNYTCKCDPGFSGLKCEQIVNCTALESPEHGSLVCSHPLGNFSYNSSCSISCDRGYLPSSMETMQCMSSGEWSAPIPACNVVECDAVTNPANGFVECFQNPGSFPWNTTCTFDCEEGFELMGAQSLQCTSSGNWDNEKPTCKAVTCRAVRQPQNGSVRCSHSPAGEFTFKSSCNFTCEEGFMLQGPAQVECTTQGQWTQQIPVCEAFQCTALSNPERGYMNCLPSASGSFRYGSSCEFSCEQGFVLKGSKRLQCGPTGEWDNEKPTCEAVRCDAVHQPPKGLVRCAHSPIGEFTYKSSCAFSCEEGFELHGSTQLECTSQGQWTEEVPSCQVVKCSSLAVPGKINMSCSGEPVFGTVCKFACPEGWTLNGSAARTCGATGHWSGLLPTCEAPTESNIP
# Key:
# [1] = molecular target: human CD62L/L-selectin expressed on J.RT3-T3.5 cells (human) (UniProt P14151); assay: flow cytometry, 50 nM antibody on J.RT3-T3.5 cells 48 hours after electroporation with SELL siRNA
# [2] = molecular target: T1, L-selectin (CD62L) on primary CD4+ T …; assay: flow; apparent KD +/-0.033; cryopreserved CD4+ T cells used right after thaw; DPBS Ca/Mg + 5 mM MgCl2, 4 C; settings: tags: endogenous, label: 5' 6-FAM, Cy5 or biotin (hexaethylene glycol spacer)
# L-selectin (CD62L, SELL) [3] = molecular target: T2, L-selectin (CD62L, SELL); assay: BLI; +/-0.203; 1:1 fit poor (R2 0.9029); aptamer immobilised; DPBS Ca/Mg + 5 mM MgCl2, 1% BSA, tRNA, salmon sperm DNA, Tween-20; settings: tags: recombinant human CD62L, R&D Systems; label: 5' 6-FAM, Cy5 or biotin (hexaethylene glycol spacer)
# Protocol: Prior to running, Octet streptavidin (SA) biosensors (Sartorius of Göttingen, Germany) were pre-soaked in 200 μL diluent (WB supplemented with 1% BSA, 0.1 mg/mL yeast tRNA, 0.1 mg/mL salmon sperm DNA and 0.01% Tween-20). For BLI, the SA biosensors were first rinsed in 200 μL diluent for 100 sec to establish the first baseline. The rinsed sensors were transferred to wells containing 50 nM biotinylated aptamers in 200 μL diluent for aptamer immobilization onto the SA biosensors until a threshold of 0.5 nm is reached. Next, aptamer-immobilized SA biosensors were rinsed in 200 μL diluent for 100 sec to remove excess aptamers and for an additional 100 sec in 200 μL diluent to establish the second baseline. […]
# To further validate A1 binding to CD62L, the expression of CD62L was knocked down in J.RT3-T3.5 cells with siRNA duplexes targeting the SELL gene, which encodes CD62L, and compared aptamer and antibody binding to J.RT3-T3.5 cells transfected with the SELL siRNA versus a control siRNA. […] The protein was serially diluted, and the association and dissociation kinetics of biotinylated CD62LApt.88 immobilized on streptavidin tips was measured. The dissociation constants (KD) were calculated by performing a global fit on the curves using a 1:1 model.
# [4] = molecular target: T1, L-selectin (CD62L) on primary CD4+ T …; assay: flow; apparent KD +/-0.086; CD4+ T cells cultured in RPMI + 10% FBS; settings: tags: endogenous, label: 5' 6-FAM, Cy5 or biotin (hexaethylene glycol spacer)
# [5] = molecular target: T3, L-selectin (CD62L) on J.RT3-T3.5 cells; assay: flow; stated as sub-nanomolar affinity; settings: tags: endogenous, J.RT3-T3.5 human T-ALL line; label: 5' 6-FAM, Cy5 or biotin (hexaethylene glycol spacer)
# L-selectin (CD62L, SELL) [6] = molecular target: T2, L-selectin (CD62L, SELL); assay: BLI; +/-0.125; R2 0.9898; aptamer immobilised; settings: tags: recombinant human CD62L, R&D Systems; label: 5' biotin
# Protocol: (§1) Prior to running, Octet streptavidin (SA) biosensors (Sartorius of Göttingen, Germany) were pre-soaked in 200 μL diluent (WB supplemented with 1% BSA, 0.1 mg/mL yeast tRNA, 0.1 mg/mL salmon sperm DNA and 0.01% Tween-20). For BLI, the SA biosensors were first rinsed in 200 μL diluent for 100 sec to establish the first baseline. The rinsed sensors were transferred to wells containing 50 nM biotinylated aptamers in 200 μL diluent for aptamer immobilization onto the SA biosensors until a threshold of 0.5 nm is reached. Next, aptamer-immobilized SA biosensors were rinsed in 200 μL diluent for 100 sec to remove excess aptamers and for an additional 100 sec in 200 μL diluent to establish the second baseline. The sensors were then transferred to wells containing different concentrations of L-selectin in 200 μL diluent to allow aptamer association with CD62L (R&D Systems of Minneapolis, Minnesota), CD62P (ACROBiosystems of Newark, Delaware), or CD62E (ACROBiosystems). Finally, the sensors were transferred to wells containing 200 μL diluent to allow dissociation. The association and dissociation durations are indicated on the BLI curves.
# P-selectin (CD62P, SELP) = P-selectin (CD62P, SELP) (Homo sapiens, UniProt P16109 P16109:42-771); assay: BLI; no noticeable binding up to 1000 nM CD62P; settings: tags: recombinant human CD62P, ACROBiosystems; label: 5' 6-FAM or biotin (hexaethylene glycol spacer)
# Protocol: as §1, with “The association and dissociation durations are indicated on the BLI curves.” left out
# (§2) The binding affinity and kinetics of CD62LApt.52 to JRT.3-T3.5 cells and to recombinant human CD62L protein was characterized by flow cytometry and BLI, respectively. […] However, no noticeable binding of CD62LApt.52 to either CD62E or CD62P at up to 1000 nM was detected by BLI (FIGS. 15A, 15B).
# L-selectin (CD62L, SELL) [7] = molecular target: T2, L-selectin (CD62L, SELL); assay: BLI; +/-0.045; R2 0.9959; aptamer immobilised; settings: tags: recombinant human CD62L, R&D Systems; label: 5' 6-FAM or biotin (hexaethylene glycol spacer)
# Protocol: as §1, with “The association and dissociation durations are indicated on the BLI curves.” left out
# as §2
# E-selectin (CD62E, SELE) = molecular target: T4, E-selectin (CD62E, SELE); assay: BLI; no noticeable binding up to 1000 nM CD62E; settings: tags: recombinant human CD62E, ACROBiosystems; label: 5' 6-FAM or biotin (hexaethylene glycol spacer)
# Protocol: as §1, with “The association and dissociation durations are indicated on the BLI curves.” left out
# as §2
# [8] = molecular target: T3, L-selectin (CD62L) on J.RT3-T3.5 cells; assay: flow; DPBS Ca/Mg + 5 mM MgCl2, 25 mM glucose, BSA, 4 C; settings: tags: endogenous, J.RT3-T3.5 human T-ALL line; label: 5' 6-FAM or biotin (hexaethylene glycol spacer)
# Chain of P-selectin (CD62P, SELP) (P16109 42-771, one chain of several): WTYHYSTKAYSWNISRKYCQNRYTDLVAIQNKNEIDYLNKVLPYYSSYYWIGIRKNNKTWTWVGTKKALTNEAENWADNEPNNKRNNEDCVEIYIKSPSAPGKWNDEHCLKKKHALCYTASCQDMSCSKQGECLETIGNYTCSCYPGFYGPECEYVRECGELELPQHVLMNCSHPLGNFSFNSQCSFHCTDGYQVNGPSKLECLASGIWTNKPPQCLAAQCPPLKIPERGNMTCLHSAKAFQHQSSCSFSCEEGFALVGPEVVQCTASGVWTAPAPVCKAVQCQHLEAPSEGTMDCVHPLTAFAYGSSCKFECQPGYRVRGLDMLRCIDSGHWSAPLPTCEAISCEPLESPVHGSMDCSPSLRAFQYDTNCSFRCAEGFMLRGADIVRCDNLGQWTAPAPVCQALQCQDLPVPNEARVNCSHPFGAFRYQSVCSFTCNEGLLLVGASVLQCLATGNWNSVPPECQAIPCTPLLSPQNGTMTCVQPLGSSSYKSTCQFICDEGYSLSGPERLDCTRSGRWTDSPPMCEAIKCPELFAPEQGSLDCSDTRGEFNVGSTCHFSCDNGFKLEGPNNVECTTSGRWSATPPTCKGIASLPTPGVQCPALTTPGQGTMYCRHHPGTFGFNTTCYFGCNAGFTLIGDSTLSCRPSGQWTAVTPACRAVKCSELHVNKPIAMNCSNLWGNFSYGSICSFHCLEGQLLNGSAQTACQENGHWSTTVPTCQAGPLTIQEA
molecule,measurement,setting,value
"Alexa Fluor 488 anti-human CD62L monoclonal antibody, clone DREG-56 (BioLegend)",relative antibody binding after CD62L siRNA knockdown (vs control siRNA),[1],17%
"CD62LApt.88 (A1, L-SA.88) (ssDNA) DNA: ATCCAGAGTGACGCAGCATAGTCAAGGCGATAGACGAAAAACATTGTTTTCCTGGAAGGCCCAGAATCTGTGGACACGGTGGCTTAGT",Kd,[2],0.04 nM
same,Kd,"L-selectin (CD62L, SELL) [3]",4.91 nM
same,Kd,[4],0.31 nM
same,Kd,[5],< 1 nM
CD62LApt.61 (ssDNA) DNA: AGACCCGACGCAGCATAGTCAAGGCGATAGACGAAAAACATTGTTTTCCTGGAAGGCCCAGAATCTGCG,Kd,"L-selectin (CD62L, SELL) [6]",5.81 nM
CD62LApt.52 (ssDNA) DNA: TAGTCAAGGCGATAGACGAAAAACATTGTTTTCCTGGAAGGCCCAGAATCTG,binding result,"P-selectin (CD62P, SELP)",no binding
same,Kd,"L-selectin (CD62L, SELL) [7]",5.3 nM
same,binding result,"E-selectin (CD62E, SELE)",no binding
same,Kd,[8],0.19 nM
